How the values were obtained:
[1] = substrate: O=C(O)c1ccccc1; test: GC-MS (SPME) of methyl benzoate formed, Michaelis-Menten fit; format: biochemical, Hedychium coronarium; conditions: SAM co-substrate (2 mM in standard assay), 100 mM KCl
[2] = substrate: O=C(O)c1ccccc1O; test: GC-MS (SPME) of methyl salicylate formed, Michaelis-Menten fit; format: biochemical, Hedychium coronarium; conditions: SAM co-substrate (2 mM in standard assay), 100 mM KCl; optimal reaction condition

Protein	Km ([1]; optimal condition (25 °C, optimum pH 6.5)) [µM]	Km [2] [µM]	Km ([1]; optimal condition (25 °C, optimum pH 6.0)) [µM]
HcBSMT2 (Hedychium coronarium) (protein, full coding region in pET30a (EcoRI/NotI), E. coli Rosetta (DE3), Ni-NTA partially purified, His tag; 377 residues, 43 kDa predicted; Tyr157, Leu226, Trp242) MGLKVEQALHMVGGSGETSYATNSRLQEKAIYRTKPVLATTIEEMYKGLLPEHMVVVDLGCSSGSNTFIVVSQVLDIIVELRRMMEMKKPLEVQFFLNDLPGNDFNYVFQSLDKFKNKVEEESKGELLVPYYVVGVAGSFYGRLFPCASVHFFHSSYCLMWLSQVPEELENDQGVSLNKGNIYWTETSSSQVEKAYREQYKKDFLTFLRSRYIELNIGGGMMLTFLGRRKRTPGHGDLCHLWRLLAEALNSMVLEEIIPEEKVSTFNLPIYGPSLEEVKSIIHHEGLFDLDRVEIFESSWDPFDDSGDDSFDLSNYTKSAKNVADCIRAVVEPLIVHQFGDVILDDLFTRYAQNVLKHLLKEKANHTILVIALKKRV	87.73 ± 7.03	26.73 ± 3.88	–
HcBSMT1 (Hedychium coronarium) (protein, full coding region in pET30a (EcoRI/NotI), E. coli Rosetta (DE3), Ni-NTA partially purified, His tag; 382 residues, 43 kDa predicted; Phe162, Val231, Tyr247) MLPNTTIMEGEMSLKVEHALHMVGGTGETSYVANSRLQEKAIHQTKSLLAIAVEETYKALHSDQMVVVDLGCSSGPNTLLMLSHVLSVATKLPRRMELQFFLNDLPGNDFNCLFQSLEGFKKRLEGEIEGDLLVPYYVAGVAGSFYGRLFPRASVHLFHSSFCLMWLSQVPEGLKIEHGVPLNKGNIYWTETSLAKVEKAYQEQFQKDFSTFLKLRHTELNVGGRMVLVFVGRRKRTPGNGDFVHLYGLLGEALNSMVLEGIIQEEKVDTFNLPIYGASFEEVESVIHNEGVFDLDRAEIFESSWDPFDDSKDDIYAIPNYMRSGKNVANYIRAVVEPLIVHQFGTVILDDLFARYAHLVSKHLLKKKANHTILVFALKKKA	–	–	1456.17 ± 163.13

Reference: PMC8058416, “Coordinated and High-Level Expression of Biosynthetic Pathway Genes Is Responsible for the Production of a Major Floral Scent Compound Methyl Benzoate in Hedychium coronarium” (Frontiers in Plant Science, 2021)
